Reference: publication PMC8152475 (Biomedicines, 2021)

B1: MPT63: secretory immunodominant antigen of MTB (protein)
chain: AYPITGKLGSELTMTDTVGQVVLGWKVSDLKSSTAVIPGYPVAGQVWEATATVNAIRGSVTPAVSQFNARTADGINYRVLWQAAGPDTISGATIPQGEQSTGKIYFDVTGPSPTIVAMNNGMEDLLIWEP
B2: MPT64: secretory immunodominant antigen of MTB, located in the RD2 region (protein)
chain: APKTYCEELKGTDTGQACQIQMSDPAYNINISLPSYYPDQKSLENYIAQTRDKFLSAATSSTPREAPYELNITSATYQSAIPPRGTQAVVLKVYQNAGGTHPTTTYKAFDWDQAYRKPITYDTLWQADTDPLPVVFPIVQGELSKQTGQQVSIAPNAGLDPVNYQNFAVTNDGVIFFFNPGELLPEAAGPTQVLVPRSAIDSMLA

Assays:
TBK1 = target: T1, TBK1 (Homo sapiens, UniProt Q9UHD2); format: binding
T1 sequence (Q9UHD2 1-729): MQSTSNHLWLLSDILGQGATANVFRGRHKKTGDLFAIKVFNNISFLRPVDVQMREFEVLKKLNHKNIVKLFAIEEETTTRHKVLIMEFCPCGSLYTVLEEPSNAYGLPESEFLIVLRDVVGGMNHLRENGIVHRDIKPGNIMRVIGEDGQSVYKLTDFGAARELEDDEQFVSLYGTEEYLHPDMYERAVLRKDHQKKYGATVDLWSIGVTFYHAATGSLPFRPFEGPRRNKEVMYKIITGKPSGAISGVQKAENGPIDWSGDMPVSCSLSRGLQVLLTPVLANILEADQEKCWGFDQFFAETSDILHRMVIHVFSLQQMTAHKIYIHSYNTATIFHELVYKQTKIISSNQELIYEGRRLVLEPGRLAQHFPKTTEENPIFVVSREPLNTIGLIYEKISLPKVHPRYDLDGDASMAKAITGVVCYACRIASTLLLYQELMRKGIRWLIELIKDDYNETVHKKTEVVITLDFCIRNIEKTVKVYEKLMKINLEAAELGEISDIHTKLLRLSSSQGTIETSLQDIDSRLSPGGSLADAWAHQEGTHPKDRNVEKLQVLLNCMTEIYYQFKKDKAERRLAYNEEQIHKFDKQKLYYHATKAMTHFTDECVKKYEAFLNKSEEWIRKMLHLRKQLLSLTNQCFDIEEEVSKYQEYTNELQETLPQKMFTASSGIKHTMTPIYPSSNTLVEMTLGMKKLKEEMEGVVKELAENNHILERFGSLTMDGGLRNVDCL

p47phox = format: binding

Molecule | domain of TBK1 required for binding (TBK1) | domain of p47phox required for binding (p47phox)
B1 | the kinase domain in TBK1 was essential to bind MPT63 | the PX domain in p47phox was important for the interaction with MPT63
B2 | The kinase domain (1–301) in TBK1 and HK2 domain in HK2 were found to be essential for their interaction with MPT64 | 
